Patent publication US20150104459A1

B1: TCN-539 (5056_A08) (antibody, V domains shown)
VH: QVQLVESGGGVVQPGRSLRLSCAASEITFITYAMHWVRQAPGKGLEWVALISDDGSNKFYADSVKGRFTISRDNSKNTLYLQMNSLRAEDTAAYYCAREGVYFDSGTYRGYFDYWGQETLVTVSS
VL: EIVLTQSPATLSLSPGERATLSCRASQSVSSYLAWYQQKPGQAPRLLIYDASNRATGIPARFSGSGSGTDFTLTISSLEPEDFAVYYCQQRSHWPPITFGQGTRLEIK
B2: TCN-538 (3206_O17) (antibody, V domains shown)
VH: QITLKESGPTLVKPTQTLTLTCVFSGFSLSITGVRVGWIRQPPGKALEWLALISWDDEKHYSPSLQSRLTITKDTSKNQVVLTMTNLDPVDTATYYCARSTDRGHVLRYFGWMLPGDAFDVWGQGTMVTVSS
VL: DIVMTQSPDFLPVSLGERATINCKSSQRVLYSSNNKNYLAWYQLKPGQPPKLIIYWASTRESGVPDRFSGSGSGTEFTLTISSLQAEDVAVYYCQQYYSRPYTFGQGTKLEIK
B3: TCN-551 (5243_D01) (antibody, V domains shown)
VH: EVQLVQSGSEVKKPGESLKISCKGSGYSFSNYWIGWVRHMPGKGLEWMGIIYPGDSDTRYSPSFQGQVTMSADKSSSTVYLQWSSLKASDTAIYYCARRGGHSFGYGSGGDTHSEFDSWGQGTLVTVSS
VL: QSVLTQSPSVSAAPGQKVTISCSGSDSNIGDYFVCWYQHLPGKPPQLLIYENNKRPSGIPDRFSGSKSGTSATLGITGIQTGDEADYYCATWDGSLSAWVFGGGTKLTVL
B4: TCN-545 (5082_I15) (antibody, V domains shown)
VH: QVQLQQWGAGLLKPSETLSLSCAVFGGSFSDYYWTWIRQPPGKGLEWIGEIKHSGRTNYNPSLESRVTISVDTSKNQFSLKLSSVTAADTAIYYCARGTDPDTEGYCRSGSCSAFDFWGQGTLVTVSS
VL: EIVLTQSPGTLSLSPGERATLSCRASHFVNYRSLAWYQQTPGQVPRLLIYGASTRATGIPDRFSGSGSGTDFTLTISRLEPEDFAVYFCQQYGGSPRYTFGQGTRLEIK

Assays:
Settings in all cases: remark: other sources report otherwise
[1] = target: recombinant soluble homotrimeric HA of A/Vietnam/1203/04 (H5N1) (Influenza A virus A/Vietnam/1203/2004 (H5N1)); experiment: HA microarray, BCC supernatant
[2] = target: recombinant soluble homotrimeric HA of A/chicken/Vietnam/NCVD-016/08 (H5N1) (Influenza A virus A/chicken/Vietnam/NCVD-016/2008 (H5N1)); experiment: HA microarray, BCC supernatant
[3] = target: recombinant soluble homotrimeric HA of A/Wisconsin/67/05 (H3N2) (Influenza A virus A/Wisconsin/67/2005 (H3N2)); experiment: HA microarray, BCC supernatant
[4] = target: recombinant soluble homotrimeric HA of A/Solomon Islands/3/06 (H1N1) (Influenza A virus A/Solomon Islands/3/2006 (H1N1)); experiment: HA microarray, BCC supernatant
[5] = target: recombinant soluble homotrimeric HA of A/Egypt/3300-NAMRU3/08 (H5N1) (Influenza A virus A/Egypt/3300-NAMRU3/2008 (H5N1)); experiment: HA microarray, BCC supernatant
[6] = target: recombinant soluble homotrimeric HA of A/Japan/305/57 (H2N2) (Influenza A virus A/Japan/305/1957 (H2N2)); experiment: HA microarray, BCC supernatant
[7] = target: recombinant homotrimeric HA, A/swine/Ontario/01911-2/99 H4N6 (Influenza A virus A/swine/Ontario/01911-2/99 (H4N6)); experiment: trimeric HA microarray; transfection supernatant set 5
[8] = target: recombinant homotrimeric HA, A/Egypt/3300-NAMRU3/08 H5N1 (Influenza A virus A/Egypt/3300-NAMRU3/08 (H5N1)); experiment: as above
[9] = target: recombinant soluble homotrimeric HA, A/Anhui/1/05 (H5N1) (influenza A virus A/Anhui/1/2005 (H5N1)); experiment: microarray, trimeric HA, transfection supernatant
[10] = target: recombinant soluble homotrimeric HA, A/northern shoveler/California/HKWF115/2007 (H6N1) (influenza A virus A/northern shoveler/California/HKWF115/2007 (H6N1)); experiment: microarray, trimeric HA, transfection supernatant
[11] = target: recombinant soluble homotrimeric HA, A/chicken/Vietnam/NCVD-016/08 (H5N1) (influenza A virus A/chicken/Vietnam/NCVD-016/2008 (H5N1)); experiment: microarray, trimeric HA, transfection supernatant
[12] = target: recombinant soluble homotrimeric HA, A/Hong Kong/156/97 (H5N1) (influenza A virus A/Hong Kong/156/97 (H5N1)); experiment: microarray, trimeric HA, transfection supernatant
[13] = target: recombinant soluble homotrimeric HA of A/California/4/09 (H1N1) (Influenza A virus A/California/04/2009 (H1N1)); experiment: HA microarray, BCC supernatant
[14] = target: recombinant soluble homotrimeric HA of A/Netherlands/219/03 (H7N7) (Influenza A virus A/Netherlands/219/03 (H7N7)); experiment: HA microarray, BCC supernatant
[15] = target: recombinant soluble homotrimeric HA of A/duck/Yangzhou/02/2005 (H8N4) (Influenza A virus A/duck/Yangzhou/02/2005 (H8N4)); experiment: HA microarray, BCC supernatant
[16] = target: recombinant soluble homotrimeric HA of A/Indonesia/5/05 (H5N1) (Influenza A virus A/Indonesia/5/2005 (H5N1)); experiment: HA microarray, BCC supernatant
[17] = target: recombinant soluble homotrimeric HA of A/northern shoveler/California/HKWF115/2007 (H6N1) (Influenza A virus A/northern shoveler/California/HKWF115/2007 (H6N1)); experiment: HA microarray, BCC supernatant
[18] = target: recombinant homotrimeric HA, A/Wisconsin/67/05 H3N2 (Influenza A virus A/Wisconsin/67/05 (H3N2)); experiment: trimeric HA microarray; transfection supernatant set 5
[19] = target: recombinant soluble homotrimeric HA of A/Anhui/1/05 (H5N1) (Influenza A virus A/Anhui/1/2005 (H5N1)); experiment: HA microarray, BCC supernatant
[20] = target: recombinant homotrimeric HA, A/California/4/09 H1N1 (Influenza A virus A/California/4/09 (H1N1)); experiment: trimeric HA microarray; transfection supernatant set 5
[21] = target: recombinant soluble homotrimeric HA, A/duck/Yangzhou/02/2005 (H8N4) (influenza A virus A/duck/Yangzhou/02/2005 (H8N4)); experiment: microarray, trimeric HA, transfection supernatant

Binder | Trimeric HA Binding RLU [1] [RLU] | Trimeric HA Binding RLU [2] [RLU] | Trimeric HA Binding RLU [3] [RLU] | Trimeric HA Binding RLU [4] [RLU] | Trimeric HA Binding RLU [5] [RLU] | Trimeric HA Binding RLU [6] [RLU] | Trimeric HA Binding: RLU [8] [RLU] | Trimeric HA Binding RLU [9] [RLU] | Trimeric HA Binding RLU [10] [RLU] | Trimeric HA Binding RLU [11] [RLU] | Trimeric HA Binding RLU [12] [RLU] | Trimeric HA Binding RLU [13] [RLU] | Trimeric HA Binding RLU [15] [RLU] | Trimeric HA Binding RLU [16] [RLU] | Trimeric HA Binding: RLU [18] [RLU] | other results
B1 | 545 | 100 | 715 | 239 | 11400 | 468 | 24300 | 3240 | 2860 | 3500 | 1450 | – | – | – | – | Trimeric HA Binding: RLU [7]: 6510 RLU
B2 | – | 37300 | 6900 | 33200 | 23600 | 43000 | – | – | 8900 | 2950 | 5170 | 13800 | 6120 | 26400 | 2070 | Trimeric HA Binding RLU [14]: 6530 RLU; Trimeric HA Binding RLU [17]: 17400 RLU
B3 | 4150 | – | 6840 | 53800 | 47200 | 22600 | 17400 | – | – | 792 | 792 | 53400 | 9820 | 53500 | 936 | Trimeric HA Binding RLU [19]: 4190 RLU
B4 | 235 | 392 | 575 | – | – | 157 | – | 4880 | – | 3230 | 1560 | 365 | – | – | – | Trimeric HA Binding: RLU [20]: 818 RLU; Trimeric HA Binding RLU [21]: 13200 RLU
